Experimental data taken from US20180244762A1.

Tests used:
[1] = target: recombinant human PDGF-BB (human) (UniProt P01127); test: optical biosensor (Proteon XPR36 / Biacore 2000), binder amine-coupled, rhPDGF-BB injected, 25 C
[2] = target: recombinant human PDGF-BB (human) (UniProt P01127); test: competitive ELISA: binder preincubated with 0.2 nM rhPDGF-BB, competitor immobilized PDGFR/Fc
[3] = target: recombinant human PDGF-BB (human) (UniProt P01127); test: cell-based or functional assay

Chain of recombinant human PDGF-BB (human) (P01127 82-190): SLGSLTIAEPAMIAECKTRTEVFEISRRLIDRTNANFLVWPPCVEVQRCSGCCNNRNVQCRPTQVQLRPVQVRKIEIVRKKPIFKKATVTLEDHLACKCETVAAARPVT

In the case of “reference anti-PDGF-BB antibody (R&D Systems, Catalog # AB-220-NA)”, the Kd [1] is reported as 0.107 nM, the IC50 [2] is reported as 0.066 nM and the Inhibition of PDGF induced proliferation of HPVPs, IC50 [3] is reported as 5.4 nM.
